B1: Gal2_ep3.3: Gal2 epPCR clone with mutations T219S M255L R267C L299S N346I E528D (protein, UniProt P13181 1-574, looked up, variant T219S M255L R267C L299S N346I E528D)
Galactose transporter: MAVEENNMPVVSQQPQAGEDVISSLSKDSHLSAQSQKYSNDELKAGESGSEGSQSVPIEIPKKPMSEYVTVSLLCLCVAFGGFMFGWDTGTISGFVVQTDFLRRFGMKHKDGTHYLSNVRTGLIVAIFNIGCAFGGIILSKGGDMYGRKKGLSIVVSVYIVGIIIQIASINKWYQYFIGRIISGLGVGGIAVLCPMLISEIAPKHLRGTLVSCYQLMISAGIFLGYCTNYGTKSYSNSVQWRVPLGLCFAWSLFLIGALTLVPESPCYLCEVNKVEDAKRSIAKSNKVSPEDPAVQAESDLIMAGIEAEKLAGNASWGELFSTKTKVFQRLLMGVFVQMFQQLTGINYFFYYGTVIFKSVGLDDSFETSIVIGVVNFASTFFSLWTVENLGHRKCLLLGAATMMACMVIYASVGVTRLYPHGKSQPSSKGAGNCMIVFTCFYIFCYATTWAPVAWVITAESFPLRVKSKCMALASASNWVWGFLIAFFTPFITSAINFYYGYVFMGCLVAMFFYVFFFVPETKGLSLDEIQELWEEGVLPWKSEGWIPSSRRGNNYDLEDLQHDDKPWYKAMLE
B2: Gal2_ep3.1: Gal2 epPCR clone with mutations M107K V239L N376Y M435I L558S (protein, UniProt P13181 1-574, looked up, variant M107K V239L N376Y M435I L558S)
Galactose transporter: MAVEENNMPVVSQQPQAGEDVISSLSKDSHLSAQSQKYSNDELKAGESGSEGSQSVPIEIPKKPMSEYVTVSLLCLCVAFGGFMFGWDTGTISGFVVQTDFLRRFGKKHKDGTHYLSNVRTGLIVAIFNIGCAFGGIILSKGGDMYGRKKGLSIVVSVYIVGIIIQIASINKWYQYFIGRIISGLGVGGIAVLCPMLISEIAPKHLRGTLVSCYQLMITAGIFLGYCTNYGTKSYSNSLQWRVPLGLCFAWSLFMIGALTLVPESPRYLCEVNKVEDAKRSIAKSNKVSPEDPAVQAELDLIMAGIEAEKLAGNASWGELFSTKTKVFQRLLMGVFVQMFQQLTGNNYFFYYGTVIFKSVGLDDSFETSIVIGVVYFASTFFSLWTVENLGHRKCLLLGAATMMACMVIYASVGVTRLYPHGKSQPSSKGAGNCIIVFTCFYIFCYATTWAPVAWVITAESFPLRVKSKCMALASASNWVWGFLIAFFTPFITSAINFYYGYVFMGCLVAMFFYVFFFVPETKGLSLEEIQELWEEGVLPWKSEGWIPSSRRGNNYDSEDLQHDDKPWYKAMLE

System: AFY10X
Assay: epPCR-screening by replica-plating on xylose plus glucose media
Type: cell-based, Saccharomyces cerevisiae
Conditions: media with 1% xylose and increasing amounts of glucose (up to 5%)
From the text: Mutants of GAL2 were created using error-prone PCR (epPCR) and then screened in AFY10X as described in Farwick et al. (2014). This method is faster than evolutionary engineering experiments and more often generates multiple mutations per ORF that might have a unique combined effect. On the downside, there might be more silent mutations among the increased number of mutations which might aggravate the identification of the relevant mutations in each clone. The GAL2 ORF was amplified in an epPCR with short amplification primers, applying various mutation rates, and the purified fragments then again amplified for recombinational cloning in a second PCR. Functional plasmids were in vivo assembled from PCR fragments and linearized p426H7 vector directly in the screening strain AFY10X. Transformants were plated out on selective SCE2 plates and subsequently screened. Colonies were tested for improved growth on media with 1% xylose and increasing amounts of glucose (up to 5%) by replica-plating. Seven clones were selected and grown in SCE2 ura^− leu^−+G418+2-DOG and samples of these cultures streaked out on plates for comparison and to obtain single colonies. Five of these seven clones were confirmed to grow on xylose glucose media. The plasmids of two clones were successfully isolated as described (yeast DNA was digested with EcoRI) and sequenced.

Row | Molecule | growth on medium (xylose + glucose)
1 | B1 | 1 + 3
2 | B2 | 1 + 5
